Results as given in patent publication US20230250158A1.

B1: 2-A6 (antibody, V domains shown)
VH: QVTLRESGPALVKPTQTLTLTCTFSGFSLNTRGMSVSWIRQPPGKALEWLALIDWEDDKFYRTSLMTRLTISKDIFKNQVVLTMTNVDPVDTGTYYCARTYSVGVKYFGMDVWGQGTTVTVSS
VL: SSELTQDPAVSVALGQTVRITCQGDSLRNYYASWYRQEPGQAPILLIYGGNYRPSGIPDRFSGSSSGNTASLTITGAQAEDEADYYCNSRDSSGNHVVFGGGTKLTVL
B2: 22-F7 (antibody, V domains shown)
VH: QVQLVESGGGVVQPGRSLRLSCAASGFSFTNYGMHWVRQAPGKGLEWVAVISYDGSIKYYEDSLKGRFTVSRDNSKKTLYLQMNSLRAEDTAVYYCTRERGTGIDYWGLGTLVTVSS
VL: QSALTQPASVSGYPGQSITLSCTGTKSDIGAYNYVSWYQQHPGKAPKLMVYDVSNRPSGLSNRFSGSKSDNTASLTISGLQAEDEAHYYCSSYTTSGTVVFGGGTKVTVL
B3: 22-E7 (antibody, V domains shown)
VH: QVQLVESGGGVVQPGTSLRLSCAASGFTFNNYPMFWVRQAPGKGLEWLALISYDGNHKVYADSVKGRFTISRDNAKNTLYLQMHSLRAEDTALYYCASDLSGAEDSWGQGTLVTVSS
VL: QSALTQPASVSGSPGQSITISCTGTSSDVGGYNYVSWYQQHPGKAPKLLIYEVSNRPSGVSNRFSGSKSGNTASLTISGLQAEDEADYYCSSYTSSSTWVFGGGTKLTVL

Molecular target: SARS-CoV-2 Spike trimer (recombinant, wild type) (SARS-CoV-2), P0DTC2
Assay: ELISA on plate-adsorbed recombinant Spike
Details: remark: other sources report otherwise

| Binder | EC50 (read off the curve) [mg/L] |
| --- | --- |
| B1 | 0.007 |
| B2 | 0.01 |
| B3 | 0.02 |
